One assay has as its target pUL53 (Human cytomegalovirus, UniProt P16794). The conditions noted are these: ratio of EC50 values. As for the experimental part: Plates were washed four times with 0.01% Tween 20 in 0.1 M phosphate buffer pH 7.2 (300 μL/well) after each incubation step. […] All data points present means of duplicates.
Another assay concerns the target T1, EBV BFLF2 (Epstein-Barr virus, UniProt P0CK47).
T1 construct: expressed in transfected cells; host or cells: 293T
T1 sequence (P0CK47 whole entry, looked up): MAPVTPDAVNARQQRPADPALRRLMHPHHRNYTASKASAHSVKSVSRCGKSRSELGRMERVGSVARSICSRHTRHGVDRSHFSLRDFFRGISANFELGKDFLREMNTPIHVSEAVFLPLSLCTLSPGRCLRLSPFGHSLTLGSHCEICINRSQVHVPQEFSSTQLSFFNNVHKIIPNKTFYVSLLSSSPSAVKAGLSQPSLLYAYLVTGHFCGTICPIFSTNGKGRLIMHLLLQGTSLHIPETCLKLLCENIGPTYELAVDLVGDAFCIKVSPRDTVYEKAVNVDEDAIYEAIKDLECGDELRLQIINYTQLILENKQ
Kind of assay: coimmunoprecipitation (CoIP), proteins from transient transfection. The conditions noted are these: 293T cells. The format is binding. The source says: (§1) Two or three dpt cells were harvested.

The next assay has as its system MCMV pM53. The description is as above. The conditions noted are these: 293T cells. The assay is classed as binding.
From the text: as §1

The target in the next assay is T2, VZV Orf27 (Varicella-zoster virus, UniProt P09283).
T2 construct: expressed in transfected cells; host or cells: 293T
Described as above. The assay is classed as binding. The conditions noted are these: 293T cells.
From the text: as §1

The target in a further assay is HCMV pUL53 (Human cytomegalovirus, UniProt P16794). The conditions noted are these: 293T cells, transient transfection.
In assay [1] the target is pUL50-pUL53 interaction (HCMV NEC) (Human cytomegalovirus, UniProt P16791). The experiment in a line: competitive binding assay. As for the experimental part: These experiments were designed to address the peptide-protein interactions for each virus, as well as the ability of the hook peptides and proteins to cross-interact with the groove proteins of the respective other virus.
After blocking with BSA plates were incubated with 50 μL/well of inhibitor solutions at different concentration ranges, and 50 μL/well of His-tagged pUL50 (0.16 μg/mL) and BFRF1 (5 μg/mL), respectively. His-tagged pUL50 and BFRF1 were detected and plates developed as described above. IC50-values were determined using the regression wizard of GraphPad Prism. All data points present means of duplicates. Inhibition was calculated according to the following formula: % Inhibition=[1−(Apeptide−Ablank1)/(A100%−Ablank2)]×100, in which “100%” is a sample without inhibitor, “blank1” is a sample without coated hook protein and “blank2” is a sample without coated hook protein and without inhibitor.

As usually defined, the IC50 is the concentration that gives 50% inhibition. Read a low IC50 as inhibition by little substance.

Non-standard residues stand in square brackets, D forms with d. Residues, ends and D or L forms follow the SMILES beside them. *: point of attachment. Biotin = O=C1N[C@H]2[C@H](CS[C@H]2CCCCC(=O)*)N1; AEEA = NCCOCCOCC(=O)O

Protocol for HCMV pUL53: CoIP analyses were performed to investigate specific protein-protein interactions (Bannister and Kouzarides, 1996). To this end, 293T cells (5×10^6) were transfected with the plasmids coding for the proteins of interest. One day before CoIP, 50 mg/ml protein A sepharose or 25 μl of dynabeads Protein A were incubated with the appropriate antibody in 500 μl CoIP buffer at 4° C. overnight. Two or three dpt cells were harvested. Lysis was performed using 500 μl CoIP buffer containing protease inhibitors and PMSF on ice for 20 min, sonificated (20 impulses, 80%) and centrifuged (14000 rpm, 10 min, 4° C.). For expression controls 50 μl aliquots of each supernatant were taken and boiled in 50 μl 2× boiling mix for 10 min at 95° C. The antibody-loaded dynabeads or sepharose beads (washed three times with CoIP buffer) were incubated with the lysates for 1.5 h at 4° C. Thereafter, samples were washed with CoIP buffer five times, resuspended in 30 μl 2× boiling mix and boiled 10 min at 95° C. Separation and analyzation of protein complexes were performed using SDS-PAGE and Wb.
Protein samples obtained from CoIP or cell lysates were separated by SDS-PAGE and transferred to a nitrocellulose membrane by electroblotting (200-300 mA for 80 min). […] Finally, the membranes were washed again three times with PBSo over 30 min, shortly incubated within a freshly prepared ECL solution (10 ml ECL solution A, 100 μl ECL solution B and 3.1 μl H2O2) and the proteins were detected by the use of the FUJIFILM Luminescent Image Analyzer LAS-1000 (FUJIFILM Europe GmbH, Düsseldorf, Germany). […]
At three dpt, cells were lysed and HA-tagged proteins were precipitated using pAb-HA or a rabbit antibody Fc fragment as specificity control. […] Lysate controls taken prior to the IP and CoIP samples were subjected to standard Wb analysis and protein expression was analyzed using tag- or protein-specific antibodies.

As to “pUL50: HCMV groove protein of the core NEC; His-tagged in ELISA, HA-tagged in CoIP”, the “fold stronger interaction than the BFRF1-BFLF2 interaction of EBV” value in the assay with pUL53 is reported as “approximately 20 fold”. In the assay with EBV BFLF2, the “CoIP interaction with EBV BFLF2” value is on record as “−”. For the same molecule, in the assay on MCMV pM53, the “CoIP interaction with MCMVpM53” value was “+”. Further, the “CoIP interaction with VZV Orf27” value with VZV Orf27 is on record as “−”. In the assay with HCMV pUL53, the “CoIP interaction with HCMV pUL53” value is “+”.
As for `CC[C@H](C)[C@H](NC(=O)CNC(=O)[C@H](CCCNC(=N)N)NC(=O)[C@H](Cc1ccccc1)NC(=O)[C@H](Cc1ccccc1)NC(=O)[C@H](CC(=O)O)NC(=O)[C@H](CCCNC(=N)N)NC(=O)[C@H](CC(C)C)NC(=O)[C@H](CO)NC(=O)[C@H](Cc1ccccc1)NC(=O)[C@H](Cc1c[nH]cn1)NC(=O)[C@H](CO)NC(C)=O)C(=O)N[C@@H](CO)C(=O)N[C@@H](C)C(=O)N[C@@H](CC(N)=O)C(=O)N[C@@H](Cc1ccccc1)C(=O)N[C@@H](CCC(=O)O)C(=O)N[C@@H](CC(C)C)C(=O)NCC(=O)N[C@@H](CCCCN)C(=O)N[C@@H](CC(=O)O)C(=O)N[C@@H](Cc1ccccc1)C(=O)N[C@@H](CC(C)C)C(=O)N[C@@H](CCCNC(=N)N)C(=O)N[C@@H](CCC(=O)O)C(=O)N[C@@H](CCSC)C(=O)N[C@@H](CC(N)=O)C(=O)N[C@H](C(=O)N1CCC[C@H]1C(=O)NCCOCCOCC(=O)N[C@@H](CCCCNC(=O)CCCC[C@@H]1SC[C@@H]2NC(=O)N[C@@H]21)C(N)=O)[C@@H](C)O` [EBV hook peptide] (Ac-SHFSLRDFFRGISANFELGKDFLREMNTP[AEEA]K(Biotin)-NH2), the IC50 in assay [1] was 2600 nM. Also, the “fold lower inhibitory activity than the HCMV counterpart (hook protein or hook peptide)” value in assay [1] (ratio of IC50 values) is on record as “approximately 22 fold”.
In assay [1], `CC[C@H](C)[C@H](NC(=O)[C@H](C)NC(=O)[C@H](CCSC)NC(=O)[C@H](CCCCN)NC(=O)[C@H](CCSC)NC(=O)[C@H](CCSC)NC(=O)[C@H](CC(N)=O)NC(=O)[C@H](CC(C)C)NC(=O)[C@H](Cc1ccc(O)cc1)NC(=O)[C@H](CCCCN)NC(=O)[C@H](CC(C)C)NC(=O)[C@H](CCC(=O)O)NC(=O)[C@H](CC(C)C)NC(=O)[C@H](CCC(=O)O)NC(=O)[C@@H]1CCCN1C(=O)[C@H](Cc1c[nH]cn1)NC(=O)[C@H](CCC(=O)O)NC(=O)[C@H](CCCNC(=N)N)NC(=O)[C@H](Cc1ccccc1)NC(=O)[C@@H](NC(=O)[C@H](CC(=O)O)NC(=O)[C@H](Cc1c[nH]cn1)NC(=O)[C@H](CC(C)C)NC(=O)[C@H](CC(=O)O)NC(=O)[C@H](Cc1c[nH]cn1)NC(=O)[C@H](CC(C)C)NC(=O)[C@@H](NC(=O)[C@H](CC(C)C)NC(C)=O)[C@@H](C)O)[C@@H](C)CC)C(=O)N[C@H](C(=O)NCCOCCOCC(=O)N[C@@H](CCCCNC(=O)CCCC[C@@H]1SC[C@@H]2NC(=O)N[C@@H]21)C(N)=O)[C@@H](C)O` [HCMV hook peptide] had an IC50 of 114 nM.

B1: MCMV pM50: MCMV core NEC protein, HA-tagged, transiently expressed (protein)
chain: MEIDKNVGADLISNTRRILRLDENELRITDTALICKNPNYSLCDAMLTTDIVYPVEYLLSYWECRSGRTACFVFKNTGCRVSLSCYIGFPERLKDLKRVCDFNFLSVNEALVVTLADIERIKPCDKGVLTNCVVRKSNSGMSYNIEVVAFGPDNEAEYQALLRDIYARRMTSVPTDCGSLICRRARCLAAAPPRRPPPPPPPGQRWGSLRKHGPVLTRRYAGGGGAAKNQPAAASPTSTSTSSPAAPSRDQDQTQRPPPAGDTNVTAAETTYSERTISFLTRHANAIHCALILAAAIALVLLWLLYWHAARSAGHP
modifications: Mouse cytomegalovirus 1
notes: MCMV core NEC protein, HA-tagged, transiently expressed
Take B1: the “CoIP interaction with EBV BFLF2” value with EBV BFLF2 is “−”. In the assay on MCMV pM53, the “CoIP interaction with MCMVpM53” value is reported as “+”. Further, the “CoIP interaction with HCMV pUL53” value with HCMV pUL53 is listed as “+”.

B2: BFRF1: EBV groove protein of the core NEC; His-tagged in ELISA, HA-tagged in CoIP (protein)
chain: MASPEERLLDELNNVIVSFLCDSGSLEVERCSGAHVFSRGSSQPLCTVKLRHGQIYHLEFVYKFLAFKLKNCNYPSSPVFVISNNGLATTLRCFLHEPSGLRSGQSGPCLGLSTDVDLPKNSIIMLGQDDFIKFKSPLVFPAELDLLKSMVVCRAYITEHRTTMQFLVFQAANAQKASRVMDMISDMSQQLSRSGQVEDTGARVTGGGGPRPGVTHSGCLGDSHVRGRGGWDLDNFSEAETEDEASYAPWRDKDSWSESEAAPWKKELVRHPIRRHRTRETRRMRGSHSRVEHVPPETRETVVGGAWRYSWRATPYLARVLAVTAVALLLMFLRWT
modifications: Human herpesvirus 4
notes: EBV groove protein of the core NEC; His-tagged in ELISA, HA-tagged in CoIP
In the case of B2, in the assay with EBV BFLF2, the “CoIP interaction with EBV BFLF2” value is “+”. The “CoIP interaction with HCMV pUL53” value with HCMV pUL53 is reported as “−”.
